The series “negative stain EM” deals with the molecule itself. Nature of the series: negative stain EM.
The series “cryo-EM structure” concerns the molecule itself. Nature of the series: cryo-EM structure.

The text below walks through data of doi:10.1101/748145 (bioRxiv, 2019).

What is called stoichiometry N is a count of units in the complex or per binding partner.

B1: LetB four-ring truncation mutant (rings 2-4 deleted), TM helix removed (domain or fragment)
chain: QDRGNTVTIDFMSADGIVPGRTPVRYQGVEVGTVQDISLSDDLRKIEVKVSIKSDMKDALREETQFWLVTPKASLAGVSGLDALVGGNYIGMMPGKGKEQDHFVALDTQPKYRLDNGNLEKALENSLSDLPTTTVSLSAETLPDVQAGSVVLYRKFEVGEVITVRPRANAFDIDLHIKPEYRNLLTSNSVFWAEGGAKVQLNGSGLTVQASPLSRALKGAISFDNLSGASASQRKGDKRILYASETAARAVGGQITLHAFDAGKLAVGMPIRYLGIDIGQIQTLDLITARNEVQAKAVLYPEYVQTFARGGTRFSVVTPQISAAGVEHLDTILQPYINVEPGRGNPRRDFELQEATITDSRYLDGLSIIVEAPEAGSLGIGTPVLFRGLEVGTVTGMTLGTLSDRVMIAMRISKRYQHLVRNNSVFWLASGYSLDFGLTGGVVKTGTFNQFIRGGIAFATPPGTPLAPKAQEGKHFLLQESEPKEWREWGTALPK
On to B1, for which the “stoichiometry N” value in the series “negative stain EM” amounted to 6.

B2: LetB six-ring truncation mutant (ring 6 deleted), TM helix removed (domain or fragment)
chain: QDRGNTVTIDFMSADGIVPGRTPVRYQGVEVGTVQDISLSDDLRKIEVKVSIKSDMKDALREETQFWLVTPKASLAGVSGLDALVGGNYIGMMPGKGKEQDHFVALDTQPKYRLDNGDLMIHLQAPDLGSLNSGSLVYFRKIPVGKVYDYAINPNKQGVVIDVLIERRFTDLVKKGSRFWNVSGVDANVSISGAKVKLESLAALVNGAIAFDSPEESKPAEAEDTFGLYEDLAHSQRGVIIKLELPSGAGLTADSTPLMYQGLEVGQLTKLDLNPGGKVTGEMTVDPSVVTLLRENTRIELRNPKLSLSDANLSALLTGKTFELVPGDGEPRKEFVVVPGEKALLHEPDVLTLTLTAPESYGIDAGQPLILHGVQVGQVIDRKLTSKGVTFTVAIEPQHRELVKGDSKFVVNSRVDVKVGLDGVEFLGASASEWINGGIRILPGDKGEMKASYPLYANLEKALENSLSDLPTTTVSLSAETLPDVQAGSVVLYRKFEVGEVITVRPRANAFDIDLHIKPEYRNLLTSNSVFWAEGGAKVQLNGSGLTVQASPLSRALKGAISFDNLSGASASQRKGDKRILYASETAARAVTITDSRYLDGLSIIVEAPEAGSLGIGTPVLFRGLEVGTVTGMTLGTLSDRVMIAMRISKRYQHLVRNNSVFWLASGYSLDFGLTGGVVKTGTFNQFIRGGIAFATPPGTPLAPKAQEGKHFLLQESEPKEWREWGTALPK
In the case of B2, in “negative stain EM”, the “stoichiometry N” value was found to be 6.

B3: LetB five-ring truncation mutant (rings 5 and 6 deleted), TM helix removed (domain or fragment)
chain: QDRGNTVTIDFMSADGIVPGRTPVRYQGVEVGTVQDISLSDDLRKIEVKVSIKSDMKDALREETQFWLVTPKASLAGVSGLDALVGGNYIGMMPGKGKEQDHFVALDTQPKYRLDNGDLMIHLQAPDLGSLNSGSLVYFRKIPVGKVYDYAINPNKQGVVIDVLIERRFTDLVKKGSRFWNVSGVDANVSISGAKVKLESLAALVNGAIAFDSPEESKPAEAEDTFGLYEDLAHSQRGVIIKLELPSGAGLTADSTPLMYQGLEVGQLTKLDLNPGGKVTGEMTVDPSVVTLLRENTRIELRNPKLSLSDANLSALLTGKTFELVPGDGEPRKEFVVVPGEKALLHEPDVLTLTLTAPESYGIDAGQPLILHGVQVGQVIDRKLTSKGVTFTVAIEPQHRELVKGDSKFVVNSRVDVKVGLDGVEFLGASASEWINGGIRILPGDKGEMKASYPLYANLEKALENSLSDLPTTITDSRYLDGLSIIVEAPEAGSLGIGTPVLFRGLEVGTVTGMTLGTLSDRVMIAMRISKRYQHLVRNNSVFWLASGYSLDFGLTGGVVKTGTFNQFIRGGIAFATPPGTPLAPKAQEGKHFLLQESEPKEWREWGTALPK
Regarding B3, the “stoichiometry N” value in the series “negative stain EM” worked out at 6.

B4: LetB periplasmic portion (residues 43-877) (domain or fragment, E. coli, UniProt P76272 43-877, looked up)
chain: QDRGNTVTIDFMSADGIVPGRTPVRYQGVEVGTVQDISLSDDLRKIEVKVSIKSDMKDALREETQFWLVTPKASLAGVSGLDALVGGNYIGMMPGKGKEQDHFVALDTQPKYRLDNGDLMIHLQAPDLGSLNSGSLVYFRKIPVGKVYDYAINPNKQGVVIDVLIERRFTDLVKKGSRFWNVSGVDANVSISGAKVKLESLAALVNGAIAFDSPEESKPAEAEDTFGLYEDLAHSQRGVIIKLELPSGAGLTADSTPLMYQGLEVGQLTKLDLNPGGKVTGEMTVDPSVVTLLRENTRIELRNPKLSLSDANLSALLTGKTFELVPGDGEPRKEFVVVPGEKALLHEPDVLTLTLTAPESYGIDAGQPLILHGVQVGQVIDRKLTSKGVTFTVAIEPQHRELVKGDSKFVVNSRVDVKVGLDGVEFLGASASEWINGGIRILPGDKGEMKASYPLYANLEKALENSLSDLPTTTVSLSAETLPDVQAGSVVLYRKFEVGEVITVRPRANAFDIDLHIKPEYRNLLTSNSVFWAEGGAKVQLNGSGLTVQASPLSRALKGAISFDNLSGASASQRKGDKRILYASETAARAVGGQITLHAFDAGKLAVGMPIRYLGIDIGQIQTLDLITARNEVQAKAVLYPEYVQTFARGGTRFSVVTPQISAAGVEHLDTILQPYINVEPGRGNPRRDFELQEATITDSRYLDGLSIIVEAPEAGSLGIGTPVLFRGLEVGTVTGMTLGTLSDRVMIAMRISKRYQHLVRNNSVFWLASGYSLDFGLTGGVVKTGTFNQFIRGGIAFATPPGTPLAPKAQEGKHFLLQESEPKEWREWGTALPK
For B4, the “stoichiometry N” value in “cryo-EM structure” is 6.
